# Laboratory results: US11098288B2, “D-type amino acid dehydrogenase” (Kureha Corporation, priority 2017, dated 2021)
# B1: D-type amino acid dehydrogenase: D-type amino acid dehydrogenase derived from Thermosyntropha lipolytica, amino acid sequence SEQ ID NO: 2, hexamer (protein, listed as Thermosyntropha lipolytica)
# chain: MGEKIRVAIVGYGNIGRYALDAIKAAPDMELAGVVRRSSSLGDKPAELADVPVVGSIKELTGVKVALLCTPTRSVPEYAREILALGINTVDSYDIHGQLADLRLELDKVAKEHNAVAVISAGWDPGTDSMVRCMFEFMAPKGITYTNFGPGMSMGHSVAVKAVKGVKNALSMTIPLGTGVHRRMVYVELEPGADFAQVEKAVKTDPYFVKDETHVIQVEDVDALIDMGHGVLMERKGVSGGTHNQLLSFSMRINNPALTAQIMVASARASVKQKPGAYTMIQIPIIDYMYGDPDEIIRQLV
# modifications: hexamer
# Key:
# [1] = Activity-staining with D-alanine or L-alanine as substrate; type: biochemical, Thermosyntropha lipolytica; details: 10 mM D-alanine or L-alanine, 1.25 mM NADP^+, pH 8.0, 50° C., 30 minutes
# Procedure: The activity was evaluated for the D-type amino acid dehydrogenase obtained in Example 2 above. The activity of the enzyme was evaluated by an activity-staining method due to a catalytic reaction of the enzyme. More specifically, an appropriate amount of enzyme solution was subjected to disc gel electrophoresis. […] The 2-(4-iodophenyl)-3-(4-nitrophenyl)-5-phenyl-2H-tetrazolium chloride in the reaction solution is reduced to form a […] formazan. A reaction formula is indicated below. In the following reaction formula, the D-type amino acid dehydrogenase is referred to as “meso-DAPDH”.
# [2] = Optimum pH in catalytic reaction (deamination of meso-diaminopimelic acid); type: biochemical, Thermosyntropha lipolytica; details: NADP^+, 50° C.
# Procedure: The optimum pH was evaluated for the D-type amino acid dehydrogenase obtained in Example 2. The activity of the enzyme was measured by determining an increase in absorbance at wavelength of 340 nm of NADPH produced by the enzymatic catalytic reaction.
# The absorbance was measured by an ultraviolet-visible spectrophotometer UV-1800 (available from SHIMADZU). The specific activity of the enzyme was calculated from the concentration of the enzyme used and enzyme dilution rate using the obtained absorbance change and the following equation.
# [3] = Optimum temperature in catalytic reaction; type: biochemical, Thermosyntropha lipolytica; details: meso-diaminopimelic acid as substrate, NADP^+
# Text: The measurement results are illustrated in FIG. 6.
# [4] = pH stability of the enzyme (residual activity after treatment in buffers); type: physicochemical, Thermosyntropha lipolytica; details: pH 5.0 to 9.5, 50° C. for 30 minutes, 100 mM buffer; activity at pH 9.0 as 100%
# Procedure: The D-type amino acid dehydrogenase purified in Example 2 was heat-treated at 50° C. for 30 minutes in each 100 mM buffer solution (pH 1.5, 2.0, 2.5, 3.0, 3.5, 4.0, 4.5, 5.0, 5.5, 6.0, 6.5, 7.0, 7.5, 8.0, 8.5, 9.0, 9.5, 10.0, 10.5, 11.0, or 11.3), and the residual activity after standing for 5 minutes in ice was confirmed. […] The activity in the treatment at pH 9.0 was defined as 100%, and the residual activity after the treatment at other pH was calculated as the relative activity.
# [5] = Thermal stability of the enzyme (residual activity after heat treatment); type: physicochemical, Thermosyntropha lipolytica; details: 70° C., 30 minutes, 10 mM phosphate buffer pH 7.2; activity at 50° C. as 100%
# Procedure: The D-type amino acid dehydrogenase purified in Example 2 was heat-treated for 30 minutes under various temperature conditions (50, 55, 60, 65, or 70° C.) in 10 mM phosphate buffer solution (pH 7.2), and the residual activity after standing for 5 minutes in ice was confirmed. […] The residual activity after treatment at other temperatures was calculated as a relative activity, with the activity at 50° C. as 100%.
molecule,measurement,setting,value
B1,stereoselectivity for substrate (activity-staining),[1],selectively acts on the D-amino acid
same,optimum pH for activity,[2],10.5
same,optimum temperature for activity,[3],about 55 °C
same,residual activity after pH treatment,[4],≥ 90%
same,residual activity after heat treatment,[5],about 74%
